For eight molecules, EC50 results are on record in US20250304662A1 (published 2025).

A word on the EC50: it is the concentration giving half of the maximal effect.

In one assay the target is T1, Kp FimHLD.
T1 chain: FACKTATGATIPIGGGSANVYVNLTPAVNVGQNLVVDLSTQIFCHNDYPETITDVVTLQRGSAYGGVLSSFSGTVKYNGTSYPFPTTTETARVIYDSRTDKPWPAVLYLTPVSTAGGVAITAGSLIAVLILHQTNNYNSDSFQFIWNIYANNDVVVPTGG
The experiment in a line: ELISA. Background: ELISA stands for enzyme-linked immunosorbent assay.

For a further assay, the target named is Ec FimHLD. The experiment in a line: ELISA.

B1: Kp 1B07 (antibody, V domains shown)
VH: EVQLQQPGAELVKPGTSVKLSCKASGYTFTSYWMHWVKQRPGQGLEWIGMIHPNSGSTNYNEMFESKASLTVDKSSSTAYMQLSSLTSEDSAVYYCARIGYSGWGQGTSVTVSS
VL: DIVMTQSPSSLSVSAGEKVTMSCKSSQSLLNGGNQKNYLAWYQQKPGQPPKVLINGASTRESGVPDRFTGNGSGTDFTLTISSVQAEDLAVYYCQNDHTYPLTFGAGTKLELKR
Turning to B1, the EC50 with Kp FimHLD worked out at 0.0148 µg/mL.

B2: Kp 1E04 (antibody, V domains shown)
VH: EVQLQQSGAELVKPGASVKLSCKASGYTFTSYWVHWVRQRPGQGLEWIGMIHPNSGSTNYNEKFKSKATLTVDKSSSTAYMQLSSLTSEDSAVYYCASYYYGSSYYFDYWGQGTTLTVSS
VL: DIVMTQSPSSLTVTAGEKVTMSCKSSQSLLNSGNQKNYLTWYQQKPGQPPKLLIYWASTRESGVPDRFTGSGSGTDFTLTISSVQAEDLAVYYCQNDYSYPLTFGAGTKLELKR
On to B2, for which the response with Kp FimHLD was half-maximal at 0.731 µg/mL (EC50). This EC50 lies about 49-fold higher than the previous one.

B3: Kp 1D09 (antibody, V domains shown)
VH: EVQLQQPGAELVKPGASVKLSCKASGYTFTNYWIHWMKQRPGRGLEWIGRIEPNSGDTKYNEKIKSRATLTVDKPSSTAYMQLSSLTSEDSAVYYCARSGYDYPEAWGQGTTLTVSS
VL: DIVLTQSPASLAVSPGQRATISCRASEGVEYYGTTLMQWYQQKPGQPPKLLIYAASNVESGVPARFSGSGSGTDFSLNIHPVEEDDIAMYFCQQSRKVSWTFGGGTKLEIKR
B3: the values for the EC50 with Ec FimHLD and with Kp FimHLD were 0.0227 µg/mL and 0.0383 µg/mL, respectively.

B4: Ec C12 (antibody, V domains shown)
VH: QVQLKQSGPGLVAPSQSLSITCTVSGFSLTNYAISWVRQPPGKGLEWLGIIWTGGGTLYNSALKSRLSISKDNSKSQVFLKMNSLQTDDTARYYCARAYYSNYDWYFDVWDTGTTVTVSS
VL: DIQMTQSPSSLSASLGDRVTISCSASQGISNYLNWYQQKPDGTVKLLIYYTSSLHSGVPSRFSGSGSGTDYSLTISNLEPEDIATYYCQQYSQVPYTFGGGTKLEIKR
In the assay with Ec FimHLD, B4 had an EC50 of 0.0122 µg/mL.

B5: Ec E7 (antibody, V domains shown)
VH: EVQLQQSGAELVKPGASVKVSCKASGYSFTNYWVHWVKQRPGQGLEWIGRIYSSDGDSNYNQKFKGKATLTVDKSSSTAYMQLSSLTSEDSAVYYCAIEGNLYFDYWGQGTTLTVSS
VL: DIVLTQSPASLAVSLGQRATISCRASQSVSTSSYSYMHWYQQKPGQPPKFLIKYASNLESGVPARFSGSGSGTDFTLNIHPVEEEDTATYYCQHSWEIPLTFGAGTKLKLKR
For B5, a half-maximal response in the assay with Ec FimHLD (EC50) required 0.0266 µg/mL. Against the preceding molecule, the EC50 is about 2.2-fold higher.

B6: Kp2 2C07 (antibody, V domains shown)
VH: EVKLVESGEGLVKPGGSLKLSCAASGFTFSSYAMSWVRQTPEKRLDWVAYISSGGDHIYYADTVKGRFTISRDNARNTLYLQMSSLKSEDTAMYYCTRDTGYYVSRYFDVWGTGTTVTVSS
VL: DIVMTQSQKFMSTSVGDRVSVTCKASQNVVTNVAWYQQKSGQSPKVVIYSASFRSSGVPDRFTGSGSGTDFTLTISNVQSEDLAEYFCHQYNSHPLTFGGGTKLEIKR
In the case of B6, the EC50 came to 0.013 µg/mL with Ec FimHLD and 0.0186 µg/mL with Kp FimHLD.

B7: Ec A2 (antibody, V domains shown)
VH: EVQLQQSGAEQVRPGASVKMSCKASGYTFTTYNMNWMKQTPGQGLEWIGVIYPGNGDISYNQKFKGKATLTVDKSSSTAYMQLSSLTSEDSAVYFCAREGDYGPWFAYWGQGTLVTVSA
VL: QIVLTQSPAIMSASPGEKVTMTCRASSSVSSSYLHWYQQKSGASPKFWIYSTSKLASGVPARFSGSGSGTSYSLTISSVEAEDAATYYCQHYSRYPLTFGGGTKLEIKR
Take B7: the values for the EC50 with Ec FimHLD and with Kp FimHLD were 0.0131 µg/mL and 0.0141 µg/mL, respectively.

B8: Ec3 B7 (antibody, V domains shown)
VH: EVQLQQPGAELVRPGASVKMSCKASGYTFTIYNLHWVKQTPRQGLEWIGTIYPGDGDTSYNQKFKGKATLTVDKSSSTAYMQLSNLTSEDSAVYFCAREGDYGPWFAYWGQGTLVTVSA
VL: QIVLTQSPAIMSASPGEKVTMTCRASSSVSSSYLHWYQQKSGASPKLWIYSSSNLASGVPARFSGSGSGTSYSLTINSVEAEDAATYYCQHYGSYPLTFGGGTKLEIKR
B8: the figures for the EC50 with Ec FimHLD and in the assay with Kp FimHLD were 0.0241 µg/mL and 0.0391 µg/mL, respectively.
